“And” between values parts separate entries of the source, which are not always exact repeats. Equal values may be shown once.
Columns and labels:
[1] = molecular target: Zot binding sites on human T lymphocytes (CD3+) (human); test: flow cytometry, MESF calibration, several volunteers
[2] = molecular target: Zot receptor / Zot binding sites on human monocytes/macrophages (CD14+) (human); test: as above
[3] = molecular target: Zot binding sites on human T lymphocytes (CD3+) (human); test: real-time flow cytometry at 37 C, Zot-FITC 40 ug/ml, cells gated on CD3
[4] = molecular target: Zot receptor / Zot binding sites on human monocytes/macrophages (CD14+) (human); test: real-time flow cytometry at 37 C, Zot-FITC 40 ug/ml, cells gated on CD14
[5] = molecular target: Zot receptor / Zot binding sites on human monocytes/macrophages (CD14+) (human); test: flow cytometry, MESF calibration, several volunteers; reference: lymphocytes
[6] = molecular target: Zot binding sites on human T lymphocytes (CD3+) (human); test: flow cytometry, MFI converted with Quantum 26 MESF kit, saturation conditions
[7] = molecular target: Zot receptor / Zot binding sites on human monocytes/macrophages (CD14+) (human); test: as above
[8] = molecular target: Zot receptor / Zot binding sites on human monocytes/macrophages (CD14+) (human); test: 4-color flow cytometry, Zot-FITC 40 ug/ml on PBMC; reference: T or B lymphocytes
[9] = molecular target: Zot receptor / Zot binding sites on human monocytes/macrophages (CD14+) (human)
[10] = molecular target: Zot binding sites on human T lymphocytes (CD3+) (human)
[11] = molecular target: Zot receptor / Zot binding sites on human monocytes/macrophages (CD14+) (human); remark: listed apart in the source

For “Zot-FITC (6xHis-Zot conjugated to fluorescein isothiocyanate, Examples 4-7) (from UniProt P38442 1-399)”, the Zot binding sites/cell (mean of several volunteers) (binding sites/cell) [1] was 10700, the Zot binding sites/cell (mean of several volunteers) (binding sites/cell) [2] was 105000 and the time to reach binding equilibrium [3] was < 2 min. The time to reach binding equilibrium [4] was < 2 min, the fold of binding sites/cell against lymphocytes [5] was 10 fold and the Zot-binding sites/cell (binding sites/cell) [6] was 9000. The Zot-binding sites/cell (binding sites/cell) [7] was 106000 and the fold of binding against T or B lymphocytes [8] was 5 fold and 8 fold.
With “6xHis-Zot fusion protein (unlabeled) (from UniProt P38442 1-399)” the % suppression of Zot-FITC mean fluorescence intensity [9] was 24% and 43%.
Work on “purified Zot (cleaved from the MBP-Zot fusion protein with Factor Xa) (from UniProt P38442 9-399)” yielded a % decrease of Zot-FITC binding [10] of 33% and a % decrease of Zot-FITC binding [11] of 33%.

Reference: patent US6733762
